Source: US20190300611A1 (ARCH ONCOLOGY, published 2019)

B1: VLX4 IgG4 S228P (xi) (antibody)
heavy: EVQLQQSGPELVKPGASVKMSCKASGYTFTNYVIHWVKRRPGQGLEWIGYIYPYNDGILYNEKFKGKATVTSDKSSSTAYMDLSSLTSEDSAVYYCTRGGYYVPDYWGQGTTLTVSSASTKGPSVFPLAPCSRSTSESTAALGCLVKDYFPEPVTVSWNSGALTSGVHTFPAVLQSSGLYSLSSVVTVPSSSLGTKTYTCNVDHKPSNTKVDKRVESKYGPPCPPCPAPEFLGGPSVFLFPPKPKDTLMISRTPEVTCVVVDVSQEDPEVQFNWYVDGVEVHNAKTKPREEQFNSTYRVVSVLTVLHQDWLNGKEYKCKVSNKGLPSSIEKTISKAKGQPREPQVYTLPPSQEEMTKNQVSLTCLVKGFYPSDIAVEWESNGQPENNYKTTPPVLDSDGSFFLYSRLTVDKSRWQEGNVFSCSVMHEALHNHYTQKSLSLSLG
light: DVLMTQTPLSLPVNLGDQASISCRSRQSIVHTNGNTYLGWFLQKPGQSPKLLIYKVSNRFSGVPDRFSGSGSGTDFTLTISRVEAEDLGVYYCFQGSHVPYTFGGGTKLEIKRTVAAPSVFIFPPSDEQLKSGTASVVCLLNNFYPREAKVQWKVDNALQSGNSQESVTEQDSKDSTYSLSSTLTLSKADYEKHKVYACEVTHQGLSSPVTKSFNRGEC
B2: VLX4 IgG2 (xi) (antibody)
heavy: EVQLQQSGPELVKPGASVKMSCKASGYTFTNYVIHWVKRRPGQGLEWIGYIYPYNDGILYNEKFKGKATVTSDKSSSTAYMDLSSLTSEDSAVYYCTRGGYYVPDYWGQGTTLTVSSASTKGPSVFPLAPCSRSTSESTAALGCLVKDYFPEPVTVSWNSGALTSGVHTFPAVLQSSGLYSLSSVVTVPSSNFGTQTYTCNVDHKPSNTKVDKTVERKCCVECPPCPAPPVAGPSVFLFPPKPKDTLMISRTPEVTCVVVDVSHEDPEVQFNWYVDGVEVHNAKTKPREEQFNSTFRVVSVLTVVHQDWLNGKEYKCKVSNKGLPAPIEKTISKTKGQPREPQVYTLPPSREEMTKNQVSLTCLVKGFYPSDIAVEWESNGQPENNYKTTPPMLDSDGSFFLYSKLTVDKSRWQQGNVFSCSVMHEALHNHYTQKSLSLSPGK
light: B1 light
B3: VLX4 IgG4 PE(xi) (antibody)
heavy: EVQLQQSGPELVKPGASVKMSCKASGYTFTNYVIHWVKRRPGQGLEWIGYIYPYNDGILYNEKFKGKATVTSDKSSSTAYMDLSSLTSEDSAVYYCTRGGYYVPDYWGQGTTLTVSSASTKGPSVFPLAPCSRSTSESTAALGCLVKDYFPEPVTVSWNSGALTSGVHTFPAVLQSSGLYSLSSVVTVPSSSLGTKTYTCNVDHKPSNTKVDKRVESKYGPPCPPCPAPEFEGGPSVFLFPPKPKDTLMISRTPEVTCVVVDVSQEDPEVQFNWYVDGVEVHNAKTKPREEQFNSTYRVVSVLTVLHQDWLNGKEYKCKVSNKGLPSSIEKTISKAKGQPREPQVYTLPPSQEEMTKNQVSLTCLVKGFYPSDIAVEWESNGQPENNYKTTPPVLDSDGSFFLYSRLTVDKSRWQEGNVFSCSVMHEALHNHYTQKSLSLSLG
light: B1 light
notes: Murine-human chimera; also called VLX4 IgG4PE chimeric mAb

Each binder was assayed against T1, human CD47 (human, UniProt Q08722 19-292) (assay: cell-based ELISA on OV10 hCD47 cells).
T1 construct: On the surface of OV10 cells transfected with human CD47, fresh human RBCs, Jurkat T cells or human breast cancer tissue; also called hCD47; integrin-associated protein (IAP)
T1 sequence (Q08722 other isoform, or with tags, fused parts or gaps limits assumed): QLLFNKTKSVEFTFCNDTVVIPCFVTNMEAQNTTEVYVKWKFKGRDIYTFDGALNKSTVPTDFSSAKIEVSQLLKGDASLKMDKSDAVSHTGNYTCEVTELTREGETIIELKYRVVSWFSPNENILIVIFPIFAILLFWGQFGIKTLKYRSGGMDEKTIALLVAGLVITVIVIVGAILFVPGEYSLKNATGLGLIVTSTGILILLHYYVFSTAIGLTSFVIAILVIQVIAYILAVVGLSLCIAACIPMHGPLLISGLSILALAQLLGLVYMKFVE
Description: Binding activities of VLX4, VLX8, and VLX9 chimeric (murine-human) and humanized mAbs were determined using a cell-based ELISA assay with human OV10 hCD47 cells expressing cell surface human CD47. OV10 hCD47 cells were grown in IMDM medium containing 10% heat inactivated fetal bovine serum (BioWest; S01520). One day before assay, 3×10⁴ cells were plated in 96 well cell bind plates (Corning #3300, VWR #66025-626) and were 95-100% confluent at the time of assay. Cells were washed and various concentrations of purified antibodies added in IMDM 37° C. for 1 hr in […]. Cells were then washed with media and incubated for an additional hour at 37° C. with HRP labeled secondary anti-human antibody (Promega) diluted 1/2500 in media. Cells were washed three times with PBS, and the peroxidase substrate 3,3′, 5,5′-tetramethylbenzidine is added (Sigma; Catalog #T4444). Reactions were terminated by the addition of HCl to 0.7N, and absorbance at 450 nm is determined using a Tecan model Infinite M200 plate reader. The apparent binding affinities of these clones to human OV10 hCD47 cells was determined by non-linear fit (Prism GraphPad software).
B1 was tested, and the Kd was 0.214 nM.
B2 showed a Kd of 0.431 nM.
For B3, the Kd was 0.225 nM.

The binders below were run against T1, human CD47 (assay: flow cytometry on human RBCs).
Description: Binding activities of chimeric (murine-human) and humanized VLX4, VLX8, and VLX9 mAbs to human CD47 on hRBCs were also determined using flow cytometry. hRBCs were incubated for 60 min on at 37° C. with various concentrations of the chimeric or humanized antibodies in a solution of phosphate buffered saline, pH 7.2, 2.5 mM EDTA (PBS+E). Cells were then washed with cold PBS+E, and incubated for an additional hour on ice with FITC labeled donkey anti-human antibody (Jackson Immuno Research Labs, West Grove, Pa.; Catalogue #709-096-149) in PBS+E. Cells were washed with PBS+E, antibody binding analyzed using a C6 Accuri Flow Cytometer (Becton Dickinson) and apparent binding affinities determined by non-linear fit (Prism GraphPad software) of the median fluorescence intensities at the various antibody concentrations.
In the case of B1, the Kd is reported as 0.099 nM.
B2 was tested, and the Kd was 0.184 nM.
For B3, the Kd was 0.303 nM.
